B1: flaB mutant F6 (E122, Glu to Ala) (natural protein)
chain: MAINVSTNVSAMTAQRYLNNAADGTQKSMERLSSGYKINSARDDAAGLQISNRLTSQSRGLDMAVRNANDGISIAQTAEGAMNETTNILQRMRDLSLQSANGSNSSSERQAIQEEVSALNDALNRIAETTSFGGNKLLNGSFGNKSFQIGADSGEAVMLSMSDMRSDTKAMGGKSYVATNGKAPDWSVTNATDLTLSYTDKQGEAREVTINAKAGDDLEEVATYINGQNGDIKASVGDEGKLQLFAANQKVSSDVTIGGGLGTEIGFAAGKDVTVKDINVTTVGGSQEAVALIDGALKAVDSQRASLGAFQNRFGHAISNLDNINENVNASRSRIKDTDYARETTQMTKSQILQQASTSVLAQAKQSPSAALSLLG
B2: flaB mutant F7 (D152, Asp to Ala) (natural protein)
chain: MAINVSTNVSAMTAQRYLNNAADGTQKSMERLSSGYKINSARDDAAGLQISNRLTSQSRGLDMAVRNANDGISIAQTAEGAMNETTNILQRMRDLSLQSANGSNSSSERQAIQEEVSALNDELNRIAETTSFGGNKLLNGSFGNKSFQIGAASGEAVMLSMSDMRSDTKAMGGKSYVATNGKAPDWSVTNATDLTLSYTDKQGEAREVTINAKAGDDLEEVATYINGQNGDIKASVGDEGKLQLFAANQKVSSDVTIGGGLGTEIGFAAGKDVTVKDINVTTVGGSQEAVALIDGALKAVDSQRASLGAFQNRFGHAISNLDNINENVNASRSRIKDTDYARETTQMTKSQILQQASTSVLAQAKQSPSAALSLLG
B3: flaB mutant F9 (R313, Arg to Ala) (natural protein)
chain: MAINVSTNVSAMTAQRYLNNAADGTQKSMERLSSGYKINSARDDAAGLQISNRLTSQSRGLDMAVRNANDGISIAQTAEGAMNETTNILQRMRDLSLQSANGSNSSSERQAIQEEVSALNDELNRIAETTSFGGNKLLNGSFGNKSFQIGADSGEAVMLSMSDMRSDTKAMGGKSYVATNGKAPDWSVTNATDLTLSYTDKQGEAREVTINAKAGDDLEEVATYINGQNGDIKASVGDEGKLQLFAANQKVSSDVTIGGGLGTEIGFAAGKDVTVKDINVTTVGGSQEAVALIDGALKAVDSQRASLGAFQNAFGHAISNLDNINENVNASRSRIKDTDYARETTQMTKSQILQQASTSVLAQAKQSPSAALSLLG
B4: flaB mutant F12 (L97, Leu to Asn) (natural protein)
chain: MAINVSTNVSAMTAQRYLNNAADGTQKSMERLSSGYKINSARDDAAGLQISNRLTSQSRGLDMAVRNANDGISIAQTAEGAMNETTNILQRMRDLSNQSANGSNSSSERQAIQEEVSALNDELNRIAETTSFGGNKLLNGSFGNKSFQIGADSGEAVMLSMSDMRSDTKAMGGKSYVATNGKAPDWSVTNATDLTLSYTDKQGEAREVTINAKAGDDLEEVATYINGQNGDIKASVGDEGKLQLFAANQKVSSDVTIGGGLGTEIGFAAGKDVTVKDINVTTVGGSQEAVALIDGALKAVDSQRASLGAFQNRFGHAISNLDNINENVNASRSRIKDTDYARETTQMTKSQILQQASTSVLAQAKQSPSAALSLLG
B5: flaB mutant F14 (I324, Ile to Asn) (natural protein)
chain: MAINVSTNVSAMTAQRYLNNAADGTQKSMERLSSGYKINSARDDAAGLQISNRLTSQSRGLDMAVRNANDGISIAQTAEGAMNETTNILQRMRDLSLQSANGSNSSSERQAIQEEVSALNDELNRIAETTSFGGNKLLNGSFGNKSFQIGADSGEAVMLSMSDMRSDTKAMGGKSYVATNGKAPDWSVTNATDLTLSYTDKQGEAREVTINAKAGDDLEEVATYINGQNGDIKASVGDEGKLQLFAANQKVSSDVTIGGGLGTEIGFAAGKDVTVKDINVTTVGGSQEAVALIDGALKAVDSQRASLGAFQNRFGHAISNLDNNNENVNASRSRIKDTDYARETTQMTKSQILQQASTSVLAQAKQSPSAALSLLG
B6: flaB mutant F13 (H316, His to Ala) (natural protein)
chain: MAINVSTNVSAMTAQRYLNNAADGTQKSMERLSSGYKINSARDDAAGLQISNRLTSQSRGLDMAVRNANDGISIAQTAEGAMNETTNILQRMRDLSLQSANGSNSSSERQAIQEEVSALNDELNRIAETTSFGGNKLLNGSFGNKSFQIGADSGEAVMLSMSDMRSDTKAMGGKSYVATNGKAPDWSVTNATDLTLSYTDKQGEAREVTINAKAGDDLEEVATYINGQNGDIKASVGDEGKLQLFAANQKVSSDVTIGGGLGTEIGFAAGKDVTVKDINVTTVGGSQEAVALIDGALKAVDSQRASLGAFQNRFGAAISNLDNINENVNASRSRIKDTDYARETTQMTKSQILQQASTSVLAQAKQSPSAALSLLG
B7: flaB mutant F5 (D94, Asp to Ala) (natural protein)
chain: MAINVSTNVSAMTAQRYLNNAADGTQKSMERLSSGYKINSARDDAAGLQISNRLTSQSRGLDMAVRNANDGISIAQTAEGAMNETTNILQRMRALSLQSANGSNSSSERQAIQEEVSALNDELNRIAETTSFGGNKLLNGSFGNKSFQIGADSGEAVMLSMSDMRSDTKAMGGKSYVATNGKAPDWSVTNATDLTLSYTDKQGEAREVTINAKAGDDLEEVATYINGQNGDIKASVGDEGKLQLFAANQKVSSDVTIGGGLGTEIGFAAGKDVTVKDINVTTVGGSQEAVALIDGALKAVDSQRASLGAFQNRFGHAISNLDNINENVNASRSRIKDTDYARETTQMTKSQILQQASTSVLAQAKQSPSAALSLLG
B8: flaB mutant F2 (N83, Asn to Ala) (natural protein)
chain: MAINVSTNVSAMTAQRYLNNAADGTQKSMERLSSGYKINSARDDAAGLQISNRLTSQSRGLDMAVRNANDGISIAQTAEGAMAETTNILQRMRDLSLQSANGSNSSSERQAIQEEVSALNDELNRIAETTSFGGNKLLNGSFGNKSFQIGADSGEAVMLSMSDMRSDTKAMGGKSYVATNGKAPDWSVTNATDLTLSYTDKQGEAREVTINAKAGDDLEEVATYINGQNGDIKASVGDEGKLQLFAANQKVSSDVTIGGGLGTEIGFAAGKDVTVKDINVTTVGGSQEAVALIDGALKAVDSQRASLGAFQNRFGHAISNLDNINENVNASRSRIKDTDYARETTQMTKSQILQQASTSVLAQAKQSPSAALSLLG
B9: flaB mutant F1 (Q57, Gln to Ala) (natural protein)
chain: MAINVSTNVSAMTAQRYLNNAADGTQKSMERLSSGYKINSARDDAAGLQISNRLTSASRGLDMAVRNANDGISIAQTAEGAMNETTNILQRMRDLSLQSANGSNSSSERQAIQEEVSALNDELNRIAETTSFGGNKLLNGSFGNKSFQIGADSGEAVMLSMSDMRSDTKAMGGKSYVATNGKAPDWSVTNATDLTLSYTDKQGEAREVTINAKAGDDLEEVATYINGQNGDIKASVGDEGKLQLFAANQKVSSDVTIGGGLGTEIGFAAGKDVTVKDINVTTVGGSQEAVALIDGALKAVDSQRASLGAFQNRFGHAISNLDNINENVNASRSRIKDTDYARETTQMTKSQILQQASTSVLAQAKQSPSAALSLLG
B10: flaB mutant F11 (N320, Asn to Ala) (natural protein)
chain: MAINVSTNVSAMTAQRYLNNAADGTQKSMERLSSGYKINSARDDAAGLQISNRLTSQSRGLDMAVRNANDGISIAQTAEGAMNETTNILQRMRDLSLQSANGSNSSSERQAIQEEVSALNDELNRIAETTSFGGNKLLNGSFGNKSFQIGADSGEAVMLSMSDMRSDTKAMGGKSYVATNGKAPDWSVTNATDLTLSYTDKQGEAREVTINAKAGDDLEEVATYINGQNGDIKASVGDEGKLQLFAANQKVSSDVTIGGGLGTEIGFAAGKDVTVKDINVTTVGGSQEAVALIDGALKAVDSQRASLGAFQNRFGHAISALDNINENVNASRSRIKDTDYARETTQMTKSQILQQASTSVLAQAKQSPSAALSLLG
B11: flaB mutant F4 (R91, Arg to Ala) (natural protein)
chain: MAINVSTNVSAMTAQRYLNNAADGTQKSMERLSSGYKINSARDDAAGLQISNRLTSQSRGLDMAVRNANDGISIAQTAEGAMNETTNILQAMRDLSLQSANGSNSSSERQAIQEEVSALNDELNRIAETTSFGGNKLLNGSFGNKSFQIGADSGEAVMLSMSDMRSDTKAMGGKSYVATNGKAPDWSVTNATDLTLSYTDKQGEAREVTINAKAGDDLEEVATYINGQNGDIKASVGDEGKLQLFAANQKVSSDVTIGGGLGTEIGFAAGKDVTVKDINVTTVGGSQEAVALIDGALKAVDSQRASLGAFQNRFGHAISNLDNINENVNASRSRIKDTDYARETTQMTKSQILQQASTSVLAQAKQSPSAALSLLG
B12: flaB mutant F3 (N87, Asn to Ala) (natural protein)
chain: MAINVSTNVSAMTAQRYLNNAADGTQKSMERLSSGYKINSARDDAAGLQISNRLTSQSRGLDMAVRNANDGISIAQTAEGAMNETTAILQRMRDLSLQSANGSNSSSERQAIQEEVSALNDELNRIAETTSFGGNKLLNGSFGNKSFQIGADSGEAVMLSMSDMRSDTKAMGGKSYVATNGKAPDWSVTNATDLTLSYTDKQGEAREVTINAKAGDDLEEVATYINGQNGDIKASVGDEGKLQLFAANQKVSSDVTIGGGLGTEIGFAAGKDVTVKDINVTTVGGSQEAVALIDGALKAVDSQRASLGAFQNRFGHAISNLDNINENVNASRSRIKDTDYARETTQMTKSQILQQASTSVLAQAKQSPSAALSLLG
B13: flaB mutant F8 (N312, Asn to Ala) (natural protein)
chain: MAINVSTNVSAMTAQRYLNNAADGTQKSMERLSSGYKINSARDDAAGLQISNRLTSQSRGLDMAVRNANDGISIAQTAEGAMNETTNILQRMRDLSLQSANGSNSSSERQAIQEEVSALNDELNRIAETTSFGGNKLLNGSFGNKSFQIGADSGEAVMLSMSDMRSDTKAMGGKSYVATNGKAPDWSVTNATDLTLSYTDKQGEAREVTINAKAGDDLEEVATYINGQNGDIKASVGDEGKLQLFAANQKVSSDVTIGGGLGTEIGFAAGKDVTVKDINVTTVGGSQEAVALIDGALKAVDSQRASLGAFQARFGHAISNLDNINENVNASRSRIKDTDYARETTQMTKSQILQQASTSVLAQAKQSPSAALSLLG

Target: TLR5 protein from pGEX-6p-1 (GST-His*10-TEV-TLR5, digested with TEV protease), used for SPR (silvery pomfret (Pampus argenteus))
Assay: SPR; BIAcore S200; TLR5 immobilised on an SA sensor chip; flaB proteins injected at 30 uL/min in PBS-P, 25°C; 1:1 Langmuir fit

“flagellin B (flaB) from Vibrio anguillarum, wild type, recombinant (from UniProt Q56572 1-376) (natural protein)” and B1 are within 1.5-fold of each other in Kd: 3.28 µM for the first, 4.4 µM for the second.

Compared with B2, B3 is 4.8-fold lower in Kd: 71.7 µM for the first, 14.8 µM for the second.

Going from B4 to B5, the Kd rises from 2.41 µM to 27.5 µM (11-fold).

Compared with B6, B7 is 6.4-fold higher in Kd: 7.29 µM for the first, 46.3 µM for the second.

B8 and B9 are within 1.5-fold of each other in Kd: 0.447 µM for the first, 0.431 µM for the second.

Going from B10 to B11, the Kd falls from 13 µM to 2.57 µM (5.1-fold).

Going from B12 to B13, the Kd falls from 26.2 µM to 3.8 µM (6.9-fold). The second binds more tightly here.
